B1: Serine/threonine-protein kinase PBS1 (Arabidopsis thaliana (Mouse-ear cress)), Q9FE20 (parent)
chain: MGCFSCFDSSDDEKLNPVDESNHGQKKQSQPTVSNNISGLPSGGEKLSSKTNGGSKRELLLPRDGLGQIAAHTFAFRELAAATMNFHPDTFLGEGGFGRVYKGRLDSTGQVVAVKQLDRNGLQGNREFLVEVLMLSLLHHPNLVNLIGYCADGDQRLLVYEFMPLGSLEDHLHDLPPDKEALDWNMRMKIAAGAAKGLEFLHDKANPPVIYRDFKSSNILLDEGFHPKLSDFGLAKLGPTGDKSHVSTRVMGTYGYCAPEYAMTGQLTVKSDVYSFGVVFLELITGRKAIDSEMPHGEQNLVAWARPLFNDRRKFIKLADPRLKGRFPTRALYQALAVASMCIQEQAATRPLIADVVTALSYLANQAYDPSKDDSRRNRDERGARLITRNDDGGGSGSKFDLEGSEKEDSPRETARILNRDINRERAVAEAKMWGESLREKRRQSEQGTSESNSTG
partner: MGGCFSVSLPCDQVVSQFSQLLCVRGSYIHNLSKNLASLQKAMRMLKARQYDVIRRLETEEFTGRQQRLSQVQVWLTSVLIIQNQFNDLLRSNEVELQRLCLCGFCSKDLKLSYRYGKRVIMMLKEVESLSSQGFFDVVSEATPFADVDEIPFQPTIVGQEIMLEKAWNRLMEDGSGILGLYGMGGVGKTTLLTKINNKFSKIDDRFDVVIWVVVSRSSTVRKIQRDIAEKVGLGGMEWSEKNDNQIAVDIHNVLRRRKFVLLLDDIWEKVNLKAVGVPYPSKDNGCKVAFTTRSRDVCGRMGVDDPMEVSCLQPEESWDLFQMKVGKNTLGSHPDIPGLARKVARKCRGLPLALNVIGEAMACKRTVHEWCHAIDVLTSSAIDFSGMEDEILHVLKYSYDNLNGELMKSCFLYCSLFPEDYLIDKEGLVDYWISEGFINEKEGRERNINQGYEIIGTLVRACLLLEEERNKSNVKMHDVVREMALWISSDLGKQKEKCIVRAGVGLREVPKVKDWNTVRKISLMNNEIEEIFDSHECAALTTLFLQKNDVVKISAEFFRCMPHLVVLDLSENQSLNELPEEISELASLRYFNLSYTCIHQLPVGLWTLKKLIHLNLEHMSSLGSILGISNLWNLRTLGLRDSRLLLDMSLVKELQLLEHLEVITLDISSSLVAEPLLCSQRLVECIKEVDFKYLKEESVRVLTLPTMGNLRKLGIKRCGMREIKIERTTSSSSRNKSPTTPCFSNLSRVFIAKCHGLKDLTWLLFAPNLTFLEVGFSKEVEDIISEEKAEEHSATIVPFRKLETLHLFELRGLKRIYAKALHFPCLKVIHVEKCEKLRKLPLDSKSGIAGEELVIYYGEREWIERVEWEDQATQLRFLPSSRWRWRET

Variants of: B1
Settings: with rps5_arath RPS5, O64973

Row | Variant | effect of a mutation on the interaction
1 | MGCFSCFDSSDDEKLNPVDESNHGQKKQSQPTVSNNISGLPSGGEKLSSKTNGGSKRELLLPRDGLGQIAAHTFAFRELAAATMNFHPDTFLGEGGFGRVYKGRLDSTGQVVAVKQLDRNGLQGNREFLVEVLMLSLLHHPNLVNLIGYCADGDQRLLVYEFMPLGSLEDHLHDLPPDKEALDWNMRMKIAAGAAKGLEFLHDKANPPVIYRDFKSSNILLDEGFHPKLSDFGLAKLGPTGDKSHVSTRVMRTYGYCAPEYAMTGQLTVKSDVYSFGVVFLELITGRKAIDSEMPHGEQNLVAWARPLFNDRRKFIKLADPRLKGRFPTRALYQALAVASMCIQEQAATRPLIADVVTALSYLANQAYDPSKDDSRRNRDERGARLITRNDDGGGSGSKFDLEGSEKEDSPRETARILNRDINRERAVAEAKMWGESLREKRRQSEQGTSESNSTG [G252R] | disrupting interaction strength
2 | MGCFSCFDSSDDEKLNPVDESNHGQKKQSQPTVSNNISGLPSGGEKLSSKTNGGSKRELLLPRDGLGQIAAHTFAFRELAAATMNFHPDTFLGEGGFGRVYKGRLDSTGQVVAVNQLDRNGLQGNREFLVEVLMLSLLHHPNLVNLIGYCADGDQRLLVYEFMPLGSLEDHLHDLPPDKEALDWNMRMKIAAGAAKGLEFLHDKANPPVIYRDFKSSNILLDEGFHPKLSDFGLAKLGPTGDKSHVSTRVMGTYGYCAPEYAMTGQLTVKSDVYSFGVVFLELITGRKAIDSEMPHGEQNLVAWARPLFNDRRKFIKLADPRLKGRFPTRALYQALAVASMCIQEQAATRPLIADVVTALSYLANQAYDPSKDDSRRNRDERGARLITRNDDGGGSGSKFDLEGSEKEDSPRETARILNRDINRERAVAEAKMWGESLREKRRQSEQGTSESNSTG [K115N] | disrupting interaction strength

— IntAct's records for PubMed 17277084
